Experiment [1] deals with T1, PtMCM (Picrophilus oshimae, UniProt A0A8G2FX57, K337A).
T1 construct: gene SAMN02745355_1050; full length, N-terminal 6xHis and C-terminal Strep-tag kept; E. coli BL21 Codon Plus; tagged monomer 81 kDa (untagged ~76 kDa); homohexamer
Kind of experiment: ATP hydrolysis, gamma-32P ATP tracer, TLC. It is filed as biochemical. As to conditions: pH 6.0, 55 °C, 10 or 100 uM ATP, no DNA, 800 nM protein, 60 min; Walker A mutant.

For experiment [2], the target named is His-PtMCM-Strep (Picrophilus torridus MCM, recombinant) (Picrophilus torridus).
Experiment [3] shares this target. This is another data set of the same source.
For experiment [4] the target is unchanged. The source holds these as a separate data set.
In experiment [5] the target is His-PtGINS (Picrophilus torridus GINS, recombinant) (Picrophilus torridus). Kind of experiment: SEC; Superdex 200 10/300 GL calibrated with protein standards, 50 mM potassium phosphate pH 7.4, 150 mM NaCl; molecular weight from retention volume; PtMCM 400 ug, profile unchanged over 1.5 to 5 uM protein.
Experiment [6] concerns the target His-PtMCM-Strep (Picrophilus torridus MCM, recombinant) (Picrophilus torridus). The description is as above.

T1 sequence (A0A8G2FX57 entry or part of it K337A): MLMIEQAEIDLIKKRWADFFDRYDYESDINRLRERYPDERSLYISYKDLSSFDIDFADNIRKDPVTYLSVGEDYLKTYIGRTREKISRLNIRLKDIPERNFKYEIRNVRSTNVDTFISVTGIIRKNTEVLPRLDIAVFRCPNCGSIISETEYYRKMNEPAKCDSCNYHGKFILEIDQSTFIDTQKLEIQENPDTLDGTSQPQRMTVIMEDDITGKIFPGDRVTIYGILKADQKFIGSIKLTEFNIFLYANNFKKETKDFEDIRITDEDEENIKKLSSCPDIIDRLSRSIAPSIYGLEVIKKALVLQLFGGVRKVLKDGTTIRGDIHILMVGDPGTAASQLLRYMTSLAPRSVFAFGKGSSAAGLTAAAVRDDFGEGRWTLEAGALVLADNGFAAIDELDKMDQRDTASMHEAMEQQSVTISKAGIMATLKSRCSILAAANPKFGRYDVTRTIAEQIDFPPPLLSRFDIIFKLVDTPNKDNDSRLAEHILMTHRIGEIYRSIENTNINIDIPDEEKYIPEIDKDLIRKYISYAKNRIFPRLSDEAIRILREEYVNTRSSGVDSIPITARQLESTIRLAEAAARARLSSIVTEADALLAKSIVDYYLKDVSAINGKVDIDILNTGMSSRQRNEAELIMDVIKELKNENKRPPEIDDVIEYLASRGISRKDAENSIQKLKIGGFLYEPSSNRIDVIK

For the compound `Nc1ncnc2c1ncn2[C@@H]1O[C@H](COP(=O)(O)OP(=O)(O)OP(=O)(O)O)[C@@H](O)[C@H]1O` [ATP], in experiment [1], the “ATP hydrolysis, gamma-32P ATP tracer, TLC” value was “ATPase activity was drastically diminished in case of the mutant PtMCM-K337A”.
Consider “His-PtGINS (Picrophilus torridus GINS, recombinant) (natural protein)”, for which, in experiment [2], the MCM ATP hydrolysis with 100 uM ATP, 500 nM PtMCM and 3000 nM PtGINS, pH 3-7, with or without DNA, 60 min; fold increase with GINS at lower pH (no effect at pH 5-7) came to 2 fold. Also, the ATP hydrolysed during the helicase reaction at pH 4, 5 mM ATP, 500 nM PtMCM and 3000 nM PtGINS, 60 min; fold stimulation by GINS in experiment [3] is over 50 fold. Further, the ATP hydrolysed during the helicase reaction at pH 6, 3-5 mM ATP, 500 nM PtMCM and 3000 nM PtGINS, 60 min; fold stimulation by GINS in experiment [4] came out at 2 fold. For the same compound, in experiment [5], the stoichiometry N (as a rule, a count of units in the complex or per binding partner) amounted to 4.
In the case of “His-PtMCM-Strep (Picrophilus torridus MCM, recombinant) (enzyme)”, in experiment [6], the stoichiometry N was found to be 6.

The values are drawn from publication PMC4356968, “Characterization of the MCM homohexamer from the thermoacidophilic euryarchaeon Picrophilus torridus” (Scientific Reports, 2015).
